The record followed here is patent US20260226184A1.

Assay [1] has as its target IL-2R (IL-2 receptor on the BCMA CAR T cells) (human) (UniProt P01589). Briefly: cell-based or functional assay.
For assay [2], the target named is CAR that binds human BCMA (scFv derived from anti-human BCMA antibody clone MSK54, human 41BB and CD3zeta intracellular signaling domains), on human T cells. The assay is described as follows: cell-based or functional assay.
Assay [3] has the same target. Briefly: flow cytometry, staining of BCMA CAR T cells with varying concentrations, Alexa647-labeled anti-FLAG secondary. For orientation: In flow cytometry, cells or beads pass a laser one at a time.
In assay [4] the target is CAR that binds human CD19 (scFv derived from anti-human CD19 antibody clone FMC69, human CD28 and CD3zeta intracellular signaling domains), on human T cells. Briefly: flow cytometry, dose-dependent staining of CD19 CAR T cells, y-axis %Binding; the value stands above the plot, in which only this curve rises.
Assay [5] has as its target CAR that binds human BCMA (scFv derived from anti-human BCMA antibody clone MSK54, human 41BB and CD3zeta intracellular signaling domains), on human T cells. Briefly: cell-based or functional assay. The source holds these as a separate data set.
The target is the same in assay [6]. Briefly: flow cytometry, anti-CD45 (y) against AF647-tagged BCMA-CH3 (x); CAR + Treatment mouse (BCMA CAR T cells and BCMA-muIL2); Spleen.
Assay [7] shares this target. The assay is described as follows: flow cytometry, anti-CD45 (y) against AF647-tagged BCMA-CH3 (x); CAR only mouse, lower row (CAR T cells without CAR-engager; the text says little to no CD45+ cells persisted); Blood.
Assay [8] has the same target. The assay is described as follows: flow cytometry, anti-CD45 (y) against AF647-tagged BCMA-CH3 (x); CAR only mouse, upper row (CAR T cells without CAR-engager; the text says little to no CD45+ cells persisted); Lung.
The target is the same in assay [9]. Briefly: flow cytometry, anti-CD45 (y) against AF647-tagged BCMA-CH3 (x); CAR + Treatment mouse (BCMA CAR T cells and BCMA-muIL2); Kidney.
For assay [10] the target is unchanged. The assay is described as follows: flow cytometry, anti-CD45 (y) against AF647-tagged BCMA-CH3 (x); CAR only mouse, lower row (CAR T cells without CAR-engager; the text says little to no CD45+ cells persisted); Lymph node.
Assay [11] shares this target. The assay is described as follows: flow cytometry, anti-CD45 (y) against AF647-tagged BCMA-CH3 (x); CAR only mouse, lower row (CAR T cells without CAR-engager; the text says little to no CD45+ cells persisted); Kidney.
Assay [12] has the same target. The assay is described as follows: flow cytometry, anti-CD45 (y) against AF647-tagged BCMA-CH3 (x); CAR only mouse, upper row (CAR T cells without CAR-engager; the text says little to no CD45+ cells persisted); Kidney.
Assay [13] shares this target. Briefly: flow cytometry, anti-CD45 (y) against AF647-tagged BCMA-CH3 (x); CAR + Treatment mouse (BCMA CAR T cells and BCMA-muIL2); Blood.
The target is the same in assay [14]. The assay is described as follows: flow cytometry, anti-CD45 (y) against AF647-tagged BCMA-CH3 (x); CAR only mouse, lower row (CAR T cells without CAR-engager; the text says little to no CD45+ cells persisted); Liver.
The target is the same in assay [15]. The assay is described as follows: flow cytometry, anti-CD45 (y) against AF647-tagged BCMA-CH3 (x); CAR only mouse, lower row (CAR T cells without CAR-engager; the text says little to no CD45+ cells persisted); Bone Marrow Right.
Assay [16] shares this target. Briefly: flow cytometry, anti-CD45 (y) against AF647-tagged BCMA-CH3 (x); CAR only mouse, upper row (CAR T cells without CAR-engager; the text says little to no CD45+ cells persisted); Bone Marrow Right.
The target is the same in assay [17]. Briefly: flow cytometry, anti-CD45 (y) against AF647-tagged BCMA-CH3 (x); CAR only mouse, lower row (CAR T cells without CAR-engager; the text says little to no CD45+ cells persisted); Lung.
The target is the same in assay [18]. The assay is described as follows: flow cytometry, anti-CD45 (y) against AF647-tagged BCMA-CH3 (x); CAR + Treatment mouse (BCMA CAR T cells and BCMA-muIL2); Bone Marrow Right.
Assay [19] has the same target. The assay is described as follows: flow cytometry, anti-CD45 (y) against AF647-tagged BCMA-CH3 (x); CAR only mouse, upper row (CAR T cells without CAR-engager; the text says little to no CD45+ cells persisted); Spleen.
The target is the same in assay [20]. Briefly: flow cytometry, anti-CD45 (y) against AF647-tagged BCMA-CH3 (x); CAR + Treatment mouse (BCMA CAR T cells and BCMA-muIL2); Lymph node.
The target is the same in assay [21]. The assay is described as follows: flow cytometry, anti-CD45 (y) against AF647-tagged BCMA-CH3 (x); CAR only mouse, upper row (CAR T cells without CAR-engager; the text says little to no CD45+ cells persisted); Blood.
The target is the same in assay [22]. Briefly: flow cytometry, anti-CD45 (y) against AF647-tagged BCMA-CH3 (x); CAR + Treatment mouse (BCMA CAR T cells and BCMA-muIL2); Bone Marrow Left.
Assay [23] has the same target. The assay is described as follows: flow cytometry, anti-CD45 (y) against AF647-tagged BCMA-CH3 (x); CAR only mouse, lower row (CAR T cells without CAR-engager; the text says little to no CD45+ cells persisted); Bone Marrow Left.
The target is the same in assay [24]. The assay is described as follows: flow cytometry, anti-CD45 (y) against AF647-tagged BCMA-CH3 (x); CAR + Treatment mouse (BCMA CAR T cells and BCMA-muIL2); Liver.
For assay [25] the target is unchanged. The assay is described as follows: flow cytometry, dose-dependent staining of BCMA CAR T cells, secondary Alexa647-labeled anti-FLAG antibody, y-axis %Binding.
Assay [26] shares this target. The assay is described as follows: flow cytometry, anti-CD45 (y) against AF647-tagged BCMA-CH3 (x); CAR only mouse, upper row (CAR T cells without CAR-engager; the text says little to no CD45+ cells persisted); Bone Marrow Left.
The target is the same in assay [27]. Briefly: flow cytometry, anti-CD45 (y) against AF647-tagged BCMA-CH3 (x); CAR + Treatment mouse (BCMA CAR T cells and BCMA-muIL2); Lung.
Assay [28] shares this target. Briefly: flow cytometry, anti-CD45 (y) against AF647-tagged BCMA-CH3 (x); CAR + Treatment mouse (BCMA CAR T cells and BCMA-muIL2); Tumor Eye.
The target is the same in assay [29]. Briefly: flow cytometry, anti-CD45 (y) against AF647-tagged BCMA-CH3 (x); CAR only mouse, upper row (CAR T cells without CAR-engager; the text says little to no CD45+ cells persisted); Lymph node.
The target is the same in assay [30]. The assay is described as follows: flow cytometry, anti-CD45 (y) against AF647-tagged BCMA-CH3 (x); CAR only mouse, upper row (CAR T cells without CAR-engager; the text says little to no CD45+ cells persisted); Liver.

Chain of UniProt P01589 (P01589 22-272, chain 1 of 3): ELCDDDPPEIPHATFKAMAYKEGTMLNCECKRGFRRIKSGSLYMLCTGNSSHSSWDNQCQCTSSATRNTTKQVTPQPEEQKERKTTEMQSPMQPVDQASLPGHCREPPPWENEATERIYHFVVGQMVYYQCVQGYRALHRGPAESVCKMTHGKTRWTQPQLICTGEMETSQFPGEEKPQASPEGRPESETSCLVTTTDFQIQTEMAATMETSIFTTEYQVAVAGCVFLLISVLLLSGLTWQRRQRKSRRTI
Chain of UniProt P01589 (P14784 27-551, chain 2 of 3, further chain): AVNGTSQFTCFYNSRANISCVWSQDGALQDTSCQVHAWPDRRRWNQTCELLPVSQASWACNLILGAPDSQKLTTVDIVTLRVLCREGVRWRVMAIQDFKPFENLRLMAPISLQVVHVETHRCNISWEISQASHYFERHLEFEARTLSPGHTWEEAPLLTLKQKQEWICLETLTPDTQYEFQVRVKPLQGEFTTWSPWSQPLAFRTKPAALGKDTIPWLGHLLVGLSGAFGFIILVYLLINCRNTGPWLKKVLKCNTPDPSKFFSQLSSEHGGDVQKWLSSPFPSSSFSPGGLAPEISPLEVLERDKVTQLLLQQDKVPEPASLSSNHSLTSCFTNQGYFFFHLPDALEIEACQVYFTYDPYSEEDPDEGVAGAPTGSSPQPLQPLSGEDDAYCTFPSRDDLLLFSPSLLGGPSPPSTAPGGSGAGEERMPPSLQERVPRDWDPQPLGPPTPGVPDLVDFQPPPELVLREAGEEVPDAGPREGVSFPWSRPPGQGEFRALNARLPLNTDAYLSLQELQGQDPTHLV
Chain of UniProt P01589 (P31785 23-369, chain 3 of 3, further chain): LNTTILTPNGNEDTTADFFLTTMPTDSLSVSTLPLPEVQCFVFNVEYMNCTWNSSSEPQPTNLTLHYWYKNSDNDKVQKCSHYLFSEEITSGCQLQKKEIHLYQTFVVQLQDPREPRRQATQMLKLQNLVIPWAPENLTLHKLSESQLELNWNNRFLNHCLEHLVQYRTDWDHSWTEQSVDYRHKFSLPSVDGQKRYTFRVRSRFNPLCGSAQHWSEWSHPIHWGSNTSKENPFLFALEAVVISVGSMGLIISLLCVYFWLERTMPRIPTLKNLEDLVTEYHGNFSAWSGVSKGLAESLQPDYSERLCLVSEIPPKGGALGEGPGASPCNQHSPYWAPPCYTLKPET

“BCMA-muIL2 CAR-engager (BCMA-CH3-muIL2-muIL2)” came in with a phosphorylation of STAT5 (pY694) in BCMA CAR T cells, EC50 in assay [1] of 0.014 nM. In assay [2], this molecule displayed a sensitivity of STAT5 phosphorylation against VHH-muIL2 greater than 200 fold. Also, the EC50 (as a rule, the concentration needed to bring the measured effect to its halfway point) in [3] came to 0.21 nM.
“CD19-muIL2 CAR-engager (from UniProt P15391 20-291)”: the EC50 in assay [4] is 0.59 nM.
The molecule “VHH-muIL2 (control construct with an irrelevant nanobody in place of the BCMA ectodomain in the CH3-muIL2 construct)” showed a phosphorylation of STAT5 (pY694) in BCMA CAR T cells, EC50 in [1] of 3.9 nM.

B1: BCMA-CH3-Neo-2/15 CAR-engager (protein)
chain: MLQMAGQCSQNEYFDSLLHACIPCQLRCSSNTPPLTCQRYCNASVTNSVKGTNAEPKSPKSADKTHTAPQPREPQVYTLPPSRDELTKNQVSLTCLVKGFYPSDIAVEWESNGQPENNYKTTPPVLDSDGSFFLYSKLTVDKSRWQQGNVFSCSVMHEALHNHYTQKSLSLSPGKGSHMPKKKIQLHAEHALYDALMILNIVKTNSPPAEEKLEDYAFNFELILEEIARLFESGDQKDEAEKAKRMKEWMKRIKTTASEDEQEEMANAIITILQSWIFS
As to B1, in assay [5], the lowest threshold of induced expression of CD69 in CAR T cells was 0.01 nM.

B2: BCMA-CH3 (dimeric BCMA lacking the muIL2) (protein)
chain: MLQMAGQCSQNEYFDSLLHACIPCQLRCSSNTPPLTCQRYCNASVTNSVKGTNAEPKSPKSADKTHTAPQPREPQVYTLPPSRDELTKNQVSLTCLVKGFYPSDIAVEWESNGQPENNYKTTPPVLDSDGSFFLYSKLTVDKSRWQQGNVFSCSVMHEALHNHYTQKSLSLSPGK
B2: the percent of cells in the upper right quadrant (CD45+ AF647+) is 47.4% in assay [6]; 0.13% in assay [7]; 0.18% in assay [8]; 1.69% in assay [9]; 5.26% in [10]; 0.044% in [11]. In addition, the percent of cells in the upper right quadrant (CD45+ AF647+) in assay [12] came out at 0.21%; in [13], 0.69%; in assay [14], 0.058%; in assay [15] it was 0.032%; in assay [16], 0.02%; in [17] it was 0.096%. Also, the percent of cells in the upper right quadrant (CD45+ AF647+) was 1.01% in assay [18]; 0.00572% in assay [19]; 12.2% in [20]; 0.2% in assay [21]; 0.75% in [22]; 0.013% in [23]. The percent of cells in the upper right quadrant (CD45+ AF647+) was 3.97% in assay [24]; 0.054% in [26]; 2.69% in [27]; 1.38% in assay [28]; 1.08% in assay [29]; 0.13% in assay [30]. Moreover, the EC50 (read off the curve) – broadly, the concentration needed to bring the measured effect to its halfway point – in assay [25] came out at 0.2 nM.
